# Results published in US20240036044A1.
# Biological target: recombinant SARS-CoV-2 Spike protein antigen (Z03501, Genscript) (SARS-CoV-2) (UniProt P0DTC2)
substance,measurement,value
"Monoclonal antibody against the SARS-CoV-2 Spike protein (A02038, Genscript)",Kd,2.39 nM
same,koff,0.000603 s⁻¹
same,kon,252000 M⁻¹ s⁻¹
